# Where a chain is given by its changes, count along the chain named. Names may count otherwise.
# B1: Vi-H46A: Vi mutant H46A (protein)
# chain: LPICPGGAARCQVTLRDLFDRAVVLSHYIHNLSSEMFSEFDKRYTAGRGFITKAINSCHTSSLATPEDKEQAQQMNQKDFLSLIVSILRSWNEPLYHLVTEVRGMQEAPEAILSKAVEIEEQTKRLLEGMELIVSQVHPETKENEIYPVWSGLPSLQMADEESRLSAYYNLLHCLRRDSHKIDNYLKLLKCRIIHNNNC
# B2: Vi-R48A: Vi mutant R48A (protein)
# chain: B1 chain with A46H, R48A
# B3: Vi-H46A/R48A: Vi double mutant H46A/R48A (protein)
# chain: B1 chain with R48A
# Target: T1, integrin α5β1 (Homo sapiens, UniProt P05556+P08648)
# T1 construct: purchased Bio-Techne
# T1 sequence (P08648 42-995 limits assumed): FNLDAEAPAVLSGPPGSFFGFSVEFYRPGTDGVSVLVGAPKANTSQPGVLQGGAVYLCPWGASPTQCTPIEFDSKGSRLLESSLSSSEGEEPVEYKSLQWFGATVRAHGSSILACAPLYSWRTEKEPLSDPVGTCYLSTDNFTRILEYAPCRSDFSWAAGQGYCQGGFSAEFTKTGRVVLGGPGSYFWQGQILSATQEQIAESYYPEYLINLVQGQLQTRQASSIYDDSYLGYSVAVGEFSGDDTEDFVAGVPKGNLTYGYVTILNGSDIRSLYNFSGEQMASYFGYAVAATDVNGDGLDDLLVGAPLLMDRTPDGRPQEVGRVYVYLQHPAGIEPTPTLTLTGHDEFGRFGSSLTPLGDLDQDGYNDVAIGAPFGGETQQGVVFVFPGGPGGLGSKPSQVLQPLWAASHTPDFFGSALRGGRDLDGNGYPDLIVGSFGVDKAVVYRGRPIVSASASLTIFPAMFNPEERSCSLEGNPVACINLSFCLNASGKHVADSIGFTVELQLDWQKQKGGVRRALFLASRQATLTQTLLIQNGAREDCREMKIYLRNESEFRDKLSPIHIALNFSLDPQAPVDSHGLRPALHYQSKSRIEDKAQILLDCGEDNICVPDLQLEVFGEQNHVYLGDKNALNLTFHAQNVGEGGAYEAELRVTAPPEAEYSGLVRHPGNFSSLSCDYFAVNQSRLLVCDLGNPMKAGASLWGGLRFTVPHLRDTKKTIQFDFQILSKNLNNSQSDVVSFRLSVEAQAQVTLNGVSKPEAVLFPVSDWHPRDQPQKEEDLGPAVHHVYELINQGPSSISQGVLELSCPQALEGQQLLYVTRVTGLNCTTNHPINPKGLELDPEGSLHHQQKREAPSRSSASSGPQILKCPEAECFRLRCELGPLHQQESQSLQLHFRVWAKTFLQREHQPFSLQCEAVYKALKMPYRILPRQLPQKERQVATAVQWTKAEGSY
# T1 sequence (P05556 21-728 limits assumed): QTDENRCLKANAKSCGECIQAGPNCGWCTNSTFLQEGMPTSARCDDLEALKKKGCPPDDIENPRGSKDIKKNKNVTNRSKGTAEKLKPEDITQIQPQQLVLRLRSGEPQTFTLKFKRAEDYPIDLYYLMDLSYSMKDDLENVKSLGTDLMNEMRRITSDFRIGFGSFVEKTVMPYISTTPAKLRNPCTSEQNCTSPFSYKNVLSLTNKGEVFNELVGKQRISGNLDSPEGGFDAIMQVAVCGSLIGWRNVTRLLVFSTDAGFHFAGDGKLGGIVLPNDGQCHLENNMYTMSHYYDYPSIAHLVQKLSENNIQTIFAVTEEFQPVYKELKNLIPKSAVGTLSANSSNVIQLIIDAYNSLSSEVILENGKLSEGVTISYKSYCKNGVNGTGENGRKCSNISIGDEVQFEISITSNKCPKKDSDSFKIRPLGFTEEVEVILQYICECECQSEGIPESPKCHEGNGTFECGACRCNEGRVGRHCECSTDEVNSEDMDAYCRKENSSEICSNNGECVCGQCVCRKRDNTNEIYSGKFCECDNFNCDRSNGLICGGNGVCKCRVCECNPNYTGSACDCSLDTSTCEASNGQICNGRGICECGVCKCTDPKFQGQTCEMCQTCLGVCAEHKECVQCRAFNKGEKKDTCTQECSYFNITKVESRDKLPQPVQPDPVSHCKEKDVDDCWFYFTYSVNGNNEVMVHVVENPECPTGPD
# Test: ELISA, binding to immobilized integrin α5β1
# Details: 100 nM mutant, compared with Vi
# Experimental: Vi ([49]) and its mutants were produced as reported ([14]). HUVECs were cultured as reported ([14], [50]).
# Plates coated with 2 μg mL^−1 integrin α5β1, PAI-1, or PAI-1-uPA complex (37 °C, 10 min) were incubated with B-Vi45-51, Vi, or 100 nM ViH46A, ViR48A, or ViH46A/R48A. Competition used excess Src, alanine mutants, or THGR peptides. Detection used horseradish peroxidase antibodies and 3,3′,5,5′-tetramethylbenzidine.
row,Molecule,Integrin α5β1 binding of Vi mutants
1,B1,reduced integrin binding
2,B2,reduced integrin binding
3,B3,reduced integrin binding

# Reference: paper PMC12795676, “Integrin α5β1 mediates the inhibitory effects of vasoinhibin on angiogenesis and vascular permeability [drawing 1]” (The Journal of Biological Chemistry, 2025)
